Experimental data published in the domain aggregation screens of Martell et al. (2025).

Assay: soluble fraction after stress (log2 fold change); higher = more stays soluble; pooled small domains, quantitative proteomics
Details: stress: 75 degC
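Further: 20 min heating vs room temperature control held 20 min.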

Sequence	soluble fraction (log2)
HMRAEPNSNYSLAIIYKNRYDIAVKKKDAVKEVEYGKMVYEYLNKYVVLSGNKSAKYKKILNYFSSY	-3.02
HMRAFTPSEAQVAHARRVMEAFWQHQREGHGAFALDGKMVDAPIVKAAARVLARAGLQDPNHPIHLA	-0.332
HMRALPFSFANRHGVLIREISDGVAHAVYRIGSSPLGLAEARRFVGMPLMLTPVAREAFDSLLQQTYEQG	-2.39
HMRAPEIEAARSDLDVGQTVQIVRHLHGNQYEVFYRGAQWQAEAVGSSGANDAQTAVITGKNGNILLIQI	0.0986
HMRAVPTKLAPFVEVLKAMLEADGHRPKAQRRTAKALHLELISRGYAGGYTRLTDYIRDWRQQQG	-2.36
HMRDANYFINPIHEWQKRYEALRASFVDRLPAQAVAQRFGYTITYIHLLRHQFKSGKIDFSEPVPEG	-4.19
HMRDFTQPQTASIGPRMREALARGTMTVEELREQFRTQEFPHESVRTAFLEELERVAAELGLA	0.349
HMRDISTDTSAWTFQDIKRYYDPQDLLTEKQVGQALSLIKGRNLNPLLNEVYIVAYKKKNGGAEFSLIV	-0.224
HMRDPLNTGFRQTLKDIVNSLPKNELYSPGVREEYIYPKIGVTSLGMEASMVLNGLISSRRKNIELKEKN	0.369
HMRDPVDKDNYLGDWDKNKTYPAGYVMTFGDKNYLALQEVPAGTKPGATDPDPFWVLDTGKTLKD	-0.14
HMRDQARQFFIDTWAKFQRHDALTPLEEKTAAIIALHPEYHRVLQNPESFITTDWRPESGDINPFMHL	-2.02
HMRDSYEVEGRIASVSPAAGTFVVAGVTVDYTGARFVGGTVAQLAPGVKVEVEGRRLANGTLQAREIEFD	-0.142
HMRDSYTFEDIEKLKDSYLQDSEKALEKLISIYEDTNQSLAIRTAALDIITDSQDPTFKLALEKIIS	-0.177
HMRDTAKTLLAMEVVGENNKKNLQAFGIQKGDQNYQTAVVVRLMQKALMEGDTSAIRLIGELTGD	-0.0652
HMRDTLSKQLLTEEMVLQFIREMREHDPGIGGEKLHAMYLGRFGRDYEYMVGRDKMEMIIAENNLNVR	-0.996
HMRDYDFGNLLYKLRIESGYTQKDIADMLGVTDKAVSKWENGIAKPTTNNIKLLSTIYNVSVEELLNG	-1.19
HMRDYKTALQEWVQRTPGQPIAYRLVDELGPDHARVFVMEVTVGGQSAGQGRGRTKKEAEQLAARAALEKL	-0.448
HMREEIESVYKTLAVTEIPYIARGNSARLGSGIQTVYDFYRMEGMQVSKILGRNGSVLWLELHG	0.0223
HMREEMYGLIGFITTSEVTDTFGQMEIKLENEPEMRINVRTNPGESLARGDAAKIISFNNSNGTFLVELTK	-0.921
HMREFQVMKQELQEMVHQRLDMSTELSDEAIGDVIDEVIMEKSRNMYISSVTKLTLRQELFNAIR	-1.68
HMREGRERRLSQLLSYLRTHHILTRSEYVKLTGLSPTAASSELKTFVTAGHIVRKGIASHSTYRLPH	-1.91
HMREKLKEYVHLLFAGTVGKEDMEQEILQNTLDRFDDWVARGFSEEDAYRKAVSGIGDIDALLG	-0.0221
HMREPDPELTASIKSMAESNDQSERLVALAQLSEQRAVDPEVADQILLIALLDEDPIIRGQAVYA	0.274
HMRERLPFGFAQSKKVVLLSTESDTPKVLSVNWPSLDLYAELKRVIGRAFLLEIVSEEEFQAQVSDAYQRD	-2.47
HMREVGVPNLRGLTAEEAQIVLSNAGLNLRTEPIRRVHETITVGRIAEQDPMPDLTIRSQRSVTTWLSSGP	0.328
HMREVTVGSAVRLKKGAKTYSGGSLASFVYERNHQVTQLSGDRAVISFKGTVVAAVHKDDLIL	-1.06
HMREVVLNRIGSVAVQRATTRTWEEWVVTLDAEGMRGKEHRDVVGHLLRAHELTSWWAQMVSVGYEQSRGQ	-0.18
HMREYRITAEEGHPRIDVFLAGRPEIGLSRSRIQALIDEGQVTLNGAMPKARQAVNPGDVIVVRVPDPE	0.0963

Sequence	soluble fraction (log2)
HMRFEWFDTLTDREKEIFGLIATGFDNQQIADRLQLAEQTVRNNISTIYSKLEVKDRFEIIRLANTI	-1.35
HMRFKPLAEILAAVQTRYAGRVLDVELDRDQAGRNVYEVKLLAADGSRREIHIDAVTGKEVSL	-0.56
HMRGAIKMAEEQMAGHKKIGSISGTAPTQGELEKKFAMAAAQMGARYYVITGLSNNNYAFGNADIY	-0.669
HMRGDEDTGVWPTPMKRAYIDSLLKGYPTGVTMIVKPPGASHTTKWMILDGANRARALRDFMNDEFMI	-0.0871
HMRGFTDFEHIEKEYLATIEKLNWPDGVTLPDKLEGEDTGTSFQVGYGDTRASNLWEYSWMK	-0.163
HMRGIPEEVADVAIQWVARLDSNEISDADRAAFFAWLDASPINRWAYNDISESWAKLSILNEMGH	-1.87
HMRGLFTVYMVGEKASRVGELDEEMVYESRIGDVFALGATSWRIEEITHDRVLVSPAYGQPGRLPFWH	-2.13
HMRGLGDLEPVDSLGKIRIDDGHMVLAFGRHKGRHLSEVQAEDPRYIHWLLSPKGIEDVEAREKVKVYLEG	0.0762
HMRGLLSQREHDVLDLVARGFSYGEIARLRSISVSTVQTHIKNLYRKLAVSSRTEAVYEAKQMGI	-1.63
HMRGLVPEIVGTLEGEIRAGTLAVGQKLPTEAEIMARFDVSRTVVREALSRLQASDLVETRHGIGTFVSAR	-0.647
HMRGPDLSKDFHEYISSQWMFFGRNAYQIAEQINKDTQLMSKYGKTTPSGVHYHIKQIQQEMEN	-0.785
HMRGPPQVLVDVELEDGRVGQIGVRNGDDATELAETFVRAFRLEQSFVGRLANVIQGKIRELLHSQ	-1.74
HMRGSRIFSGDVSPLTLPANSPFFSGYTEFKPGDVYVERSATNIAMWEWKSQPGGYTWVKTADIA	-1.27
HMRGYGDRIRILRERAGITIEQLAERLGVAPYFIRRTELSEVYPTKPYIEALADVLNIDASYLARHI	-2.46
HMRHYVLKENNGVIAIYKVNQENEAVFKENTQIQVQYLPEVDLINLKKGIYAIGEEKLNSILEDF	-0.667
HMRIDSFEDARRRFEYDYLTRLLKLTQGSVTQAAKLAKRNRTEFYKLLQRHGIEAAHFKPTS	-1.53
HMRIDVWLAENGFAPSRQKAQDLIAAGRVFQTDPSGRRQKVSKASAAVDPALSPKIEVIPDPE	-0.0608
HMRILGIDPGYAITGYSIIDYVGNKFKLIDSGAVLTKAGVSFPLRLTKIYDDLSMIIDEYKPDA	0.0296
HMRIPANIAEDIKKLQKKEHHLHHHLGRDPFDDELAKELEWDTEQVSEIRQMIKNPELLEELLEAEREEE	0.0316
HMRITEQRRTLAKLFADTPGYLSPKDVYDYMGRFYPGLSFDTVYRNLRLLDELGVLEQVVFEDGVKFK	-0.847
HMRIWTISDLYKNVEDKKVSLAVFSEDNDSNKVNVLDINGEEHSVNLLKADLPTLVDLFRKNDVRFAVRSN	-0.116
HMRIWTPEMIKEYIISSNGKEPLNSHYYSTNHPSIYAAAERIFGSWGNAINAAGLDYNAIRKYK	-0.488
HMRIYFSPSEIGFYHESDKQAYLLAGTWPNDLLEISEKWFLYLLEGQQKGKVITVNDYDQPVLVD	-2.9
HMRIYTKDEYLAELSRYLHKLPQDDYESAMAYFREYFEEAGPENEAQAMRDLGTPKEAASEILQNLLH	-0.401
HMRKDYTVLYSAVNAEEATEIVSKLQESGVAYQYKDNGDVLVDKKQVDKVRAQLAQEGYPKS	0.0467
HMRKIEDVLRLHAQGMSTRRIALATGVGKTTVIEYLRRAAVAGLSWPLPEGLDEEALERRVFPPPP	-2.59
HMRKIFPFNPNFITDQRGYFLGMSTSEIDRLHHFRAANKWIQSAQEFQVVTKVSNAWLSEFSPYFNFP	-3.87
